Test results published in patent US20070197430A1, “Conjugates And Therapeutic Uses Thereof” (priority 2004, published 2007).
Values belong to the molecule of their own block, whether it stands above or below them. Peptide text beside a SMILES is read from it.

Assays:
[1] = target: GST tagged Bcl w delta C29 protein (UniProt Q92843); experiment: competition assay; competitor: biotinylated Bim BH3 peptide
[2] = target: T1, Bcl-w ΔC29 (Homo sapiens, UniProt Q92843); experiment: Alphascreen GST competition assay with biotinylated Bim BH3-26 peptide; assay type: binding; conditions: for binding affinity for Bcl-w ΔC29 compared to the linear 16-mer, in words: Examples 8 and 9; for decrease in binding affinity: relative to linear 16-mer
T1 sequence (Q92843 1-164 limits assumed): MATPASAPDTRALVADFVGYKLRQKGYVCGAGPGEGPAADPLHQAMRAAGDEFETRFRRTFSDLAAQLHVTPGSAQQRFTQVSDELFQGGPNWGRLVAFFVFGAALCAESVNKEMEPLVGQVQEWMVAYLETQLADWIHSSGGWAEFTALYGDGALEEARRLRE

[3] = test system: pre-B tumor cells from E-mu myc transgenic mice; experiment: Cell viability by propidium iodide exclusion, flow cytometry; assay type: cell-based; conditions: Mus musculus, 24 h, read-out: % viable cells at 24 hours
Procedure: After 24 hours incubation at 37° C. in 5% CO2, the cells were washed with PBS and 50 μL of 100 μg/mL solution of propidium iodide was added to each well. The cells were analyzed by flow cytometry (BD Facscan) and the viable cells denoted as the percentage of cells excluding propidium iodide.

[4] = target: GST tagged Bcl w delta C29 protein (UniProt Q92843); experiment: competition assay; compared with the linear 16-mer

- IC50 [1]: 2.4 nM
Molecule: Peptide G (constrained) Ac-QAIAQZLRRIGDZFNA-NH2

- binding affinity for Bcl-w ΔC29 compared to the linear 16-mer, in words [2]: drop in binding
Molecule: CC[C@H](C)[C@H](NC(C)=O)C(=O)N[C@@H](C)C(=O)N[C@H](C(=O)N[C@@H](C)C(=O)N[C@@H](CCC(N)=O)C(=O)N[C@@H](CCC(=O)O)C(=O)N[C@@H](CC(C)C)C(=O)N[C@@H](CCCNC(=N)N)C(=O)N[C@@H](CCCNC(=N)N)C(=O)N[C@H](C(=O)NCC(=O)N[C@@H](CC(=O)O)C(=O)N[C@@H](CCC(=O)O)C(=O)N[C@@H](Cc1ccccc1)C(=O)N[C@@H](CC(N)=O)C(=O)N[C@@H](C)C(N)=O)[C@@H](C)CC)[C@@H](C)CC [P] (Ac-IAIAQELRRIGDEFNA-NH2)

- decrease in binding affinity [2]: two-fold
Molecule: CC[C@H](C)[C@H](NC(C)=O)C(=O)N[C@@H](Cc1c[nH]c2ccccc12)C(=O)N[C@H](C(=O)N[C@@H](C)C(=O)N[C@@H](CCC(N)=O)C(=O)N[C@@H](CCC(=O)O)C(=O)N[C@@H](CC(C)C)C(=O)N[C@@H](CCCNC(=N)N)C(=O)N[C@@H](CCCNC(=N)N)C(=O)N[C@H](C(=O)NCC(=O)N[C@@H](CC(=O)O)C(=O)N[C@@H](CCC(=O)O)C(=O)N[C@@H](Cc1ccccc1)C(=O)N[C@@H](CC(N)=O)C(=O)N[C@@H](CC(N)=O)C(N)=O)[C@@H](C)CC)[C@@H](C)CC [Peptide U] (Ac-IWIAQELRRIGDEFNN-NH2)

- decrease in binding affinity [2]: 1,000 fold
Molecule: CC[C@H](C)[C@H](NC(C)=O)C(=O)N[C@@H](Cc1c[nH]c2ccccc12)C(=O)N[C@H](C(=O)N[C@@H](C)C(=O)N[C@@H](CCC(N)=O)C(=O)N[C@@H](CCC(=O)O)C(=O)N[C@@H](CC(C)C)C(=O)N[C@@H](CCCNC(=N)N)C(=O)N[C@@H](CCCNC(=N)N)C(=O)N[C@H](C(=O)NCC(=O)N[C@@H](CC(=O)O)C(=O)N[C@@H](CCC(=O)O)C(=O)N[C@@H](C)C(=O)N[C@@H](CC(N)=O)C(=O)N[C@@H](C)C(N)=O)[C@@H](C)CC)[C@@H](C)CC [Peptide L] (Ac-IWIAQELRRIGDEANA-NH2)

- IC50 [1]: 20 nM
Molecule: Peptide T (linear) Ac-IWIAQELCitCitIGDEFNA-NH2

- binding affinity for Bcl-w ΔC29 compared to the linear 16-mer, in words [2]: drop in binding
Molecule: CC[C@H](C)[C@H](NC(C)=O)C(=O)N[C@@H](Cc1ccccc1)C(=O)N[C@H](C(=O)N[C@@H](C)C(=O)N[C@@H](CCC(N)=O)C(=O)N[C@@H](CCC(=O)O)C(=O)N[C@@H](CC(C)C)C(=O)N[C@@H](CCCNC(=N)N)C(=O)N[C@@H](CCCNC(=N)N)C(=O)N[C@H](C(=O)NCC(=O)N[C@@H](CC(=O)O)C(=O)N[C@@H](CCC(=O)O)C(=O)N[C@@H](Cc1ccccc1)C(=O)N[C@@H](CC(N)=O)C(=O)N[C@@H](C)C(N)=O)[C@@H](C)CC)[C@@H](C)CC [N] (Ac-IFIAQELRRIGDEFNA-NH2)

Molecule: CC[C@H](C)[C@H](NC(C)=O)C(=O)N[C@@H](Cc1c[nH]c2ccccc12)C(=O)N[C@H](C(=O)N[C@@H](C)C(=O)N[C@@H](CCC(N)=O)C(=O)N[C@@H](CCC(=O)O)C(=O)N[C@@H](CC(C)C)C(=O)N[C@@H](CCCNC(=N)N)C(=O)N[C@@H](CCCNC(=N)N)C(=O)N[C@H](C(=O)NCC(=O)N[C@@H](CC(=O)O)C(=O)N[C@@H](CCC(=O)O)C(=O)N[C@@H](Cc1ccccc1)C(=O)N[C@@H](C)C(=O)N[C@@H](C)C(N)=O)[C@@H](C)CC)[C@@H](C)CC [Peptide S] (Ac-IWIAQELRRIGDEFAA-NH2)
- binding affinity for Bcl-w ΔC29 compared to the linear 16-mer, in words [2]: only slight, if any, loss of binding affinity

- decrease in binding affinity [2]: about 1000 fold
Molecule: CC[C@H](C)[C@H](NC(C)=O)C(=O)N[C@@H](Cc1c[nH]c2ccccc12)C(=O)N[C@H](C(=O)N[C@@H](C)C(=O)N[C@@H](CCC(N)=O)C(=O)N[C@@H](CCC(=O)O)C(=O)N[C@@H](C)C(=O)N[C@@H](CCCNC(=N)N)C(=O)N[C@@H](CCCNC(=N)N)C(=O)N[C@H](C(=O)NCC(=O)N[C@@H](CC(=O)O)C(=O)N[C@@H](CCC(=O)O)C(=O)N[C@@H](Cc1ccccc1)C(=O)N[C@@H](CC(N)=O)C(=O)N[C@@H](C)C(N)=O)[C@@H](C)CC)[C@@H](C)CC [Peptide J] (Ac-IWIAQEARRIGDEFNA-NH2)

- binding affinity for Bcl-w ΔC29 compared to the linear 16-mer, in words [2]: drop in binding
Molecule: CC[C@H](C)[C@H](NC(=O)[C@H](CCCNC(=N)N)NC(=O)[C@H](CCCNC(=N)N)NC(=O)[C@H](CC(C)C)NC(=O)[C@H](CCC(=O)O)NC(=O)[C@H](CCC(N)=O)NC(=O)[C@H](C)NC(=O)[C@@H](NC(=O)[C@H](Cc1c[nH]c2ccccc12)NC(=O)[C@H](C)NC(C)=O)[C@@H](C)CC)C(=O)NCC(=O)N[C@@H](CC(=O)O)C(=O)N[C@@H](CCC(=O)O)C(=O)N[C@@H](Cc1ccccc1)C(=O)N[C@@H](CC(N)=O)C(=O)N[C@@H](C)C(N)=O [O, Ac-AWIAQELRRJGDEFNA-NH2] (Ac-AWIAQELRRIGDEFNA-NH2)

Molecule: COc1cc([C@@H]2c3cc4c(cc3[C@@H](O[C@@H]3O[C@@H]5CO[C@@H](C)O[C@H]5[C@H](O)[C@H]3O)[C@H]3COC(=O)[C@H]23)OCO4)cc(OC)c1O [Etoposide]
- viability at 0.015 µM ([3]; concentration 0.015 μM): 80%
- viability at 0.0312 µM ([3]; concentration 0.0312 μM): 50%
- viability at 0.0625 µM ([3]; concentration 0.0625 μM): 21%
- viability at 0.125 µM ([3]; concentration 0.125 μM): 0%
- viability at 0.25 µM ([3]; concentration 0.25 μM): 0%
- viability at 0.5 µM ([3]; concentration 0.5 μM): 0%
- viability at 1 µM ([3]; concentration 1.0 μM): 0%

- binding affinity for Bcl-w ΔC29 compared to the linear 16-mer, in words [2]: slight decrease in binding affinity
- decrease in binding affinity [2]: 100 fold
Molecule: CC[C@H](C)[C@H](NC(C)=O)C(=O)N[C@@H](Cc1c[nH]c2ccccc12)C(=O)N[C@@H](C)C(=O)N[C@@H](C)C(=O)N[C@@H](CCC(N)=O)C(=O)N[C@@H](CCC(=O)O)C(=O)N[C@@H](CC(C)C)C(=O)N[C@@H](CCCNC(=N)N)C(=O)N[C@@H](CCCNC(=N)N)C(=O)N[C@H](C(=O)NCC(=O)N[C@@H](CC(=O)O)C(=O)N[C@@H](CCC(=O)O)C(=O)N[C@@H](Cc1ccccc1)C(=O)N[C@@H](CC(N)=O)C(=O)N[C@@H](C)C(N)=O)[C@@H](C)CC [Peptide I] (Ac-IWAAQELRRIGDEFNA-NH2)

- decrease in binding affinity [2]: 3 fold
Molecule: CC[C@H](C)[C@H](NC(C)=O)C(=O)N[C@@H](Cc1c[nH]c2ccccc12)C(=O)N[C@H](C(=O)N[C@@H](C)C(=O)N[C@@H](CCC(N)=O)C(=O)N[C@@H](CCC(=O)O)C(=O)N[C@@H](CC(C)C)C(=O)N[C@@H](CCCNC(=N)N)C(=O)N[C@@H](CCCNC(=N)N)C(=O)N[C@@H](C)C(=O)NCC(=O)N[C@@H](CC(=O)O)C(=O)N[C@@H](CCC(=O)O)C(=O)N[C@@H](Cc1ccccc1)C(=O)N[C@@H](CC(N)=O)C(=O)N[C@@H](C)C(N)=O)[C@@H](C)CC [Peptide K] (Ac-IWIAQELRRAGDEFNA-NH2)

- binding affinity for Bcl-w ΔC29 compared to the linear 16-mer, in words [2]: drop in binding
Molecule: CC[C@H](C)[C@H](NC(C)=O)C(=O)N[C@@H](CCCNC(=N)N)C(=O)N[C@H](C(=O)N[C@@H](C)C(=O)N[C@@H](CCC(N)=O)C(=O)N[C@@H](CCC(=O)O)C(=O)N[C@@H](CC(C)C)C(=O)N[C@@H](CCCNC(=N)N)C(=O)N[C@@H](CCCNC(=N)N)C(=O)N[C@H](C(=O)NCC(=O)N[C@@H](CC(=O)O)C(=O)N[C@@H](CCC(=O)O)C(=O)N[C@@H](Cc1ccccc1)C(=O)N[C@@H](CC(N)=O)C(=O)N[C@@H](C)C(N)=O)[C@@H](C)CC)[C@@H](C)CC [Q] (Ac-IRIAQELRRIGDEFNA-NH2)

- IC50 [1]: 42 nM
Molecule: Ac-IAIAQELRRIGDEFNA-NH2 [Peptide P (linear) Ac-…-NH2]

- IC50 [1]: 0.25 nM
Molecule: Ac-VQIARKLQAIADQFHR-NH2 [Bmf peptide Ac-…-NH2]

- fold decrease in binding affinity against the linear 16-mer [4]: 100 fold
- IC50 [1]: 360 nM
Molecule: Ac-IWAAQELRRIGDEFNA-NH2 [Peptide I (linear) Ac-…-NH2]

- fold decrease in binding affinity against the linear 16-mer [4]: 3 fold
- IC50 [1]: 7.3 nM
Molecule: Ac-IWIAQELRRAGDEFNA-NH2 [Peptide K (linear) Ac-…-NH2]

- IC50 [1]: 17 nM
Molecule: Ac-IRIAQELRRIGDEFNA-NH2 [Peptide Q (linear) Ac-…-NH2]

- IC50 [1]: 11 nM
Molecule: Ac-IFIAQELRRIGDEFNA-NH2 [Peptide N (linear) Ac-…-NH2]

- fold decrease in binding affinity against the linear 16-mer [4]: 1000 fold
- IC50 [1]: 3500 nM
Molecule: Ac-IWIAQELRRIGDEANA-NH2 [Peptide L (linear) Ac-…-NH2]

- fold decrease in binding affinity against the linear 16-mer [4]: 25000 fold
- IC50 [1]: 64000 nM
Molecule: Ac-IWAAQEARRAGDEANA-NH2 [Peptide M (linear) Ac-…-NH2]

- fold decrease in binding affinity against the linear 16-mer [4]: 1000 fold
- IC50 [1]: 3700 nM
Molecule: Ac-IWIAQEARRIGDEFNA-NH2 [Peptide J (linear) Ac-…-NH2]

- IC50 [1]: 3.3 nM
Molecule: Ac-IWIAQELRRIGDEFAA-NH2 [Peptide S (linear) Ac-…-NH2]

- IC50 [1]: 52 nM
Molecule: Ac-REIGAQLRRMADDLNA-NH2 [Puma peptide Ac-…-NH2]

- IC50 [1]: 3.3 nM
Molecule: Ac-IWIAQQLRRIGDQFNA-NH2 [Peptide H (linear) Ac-…-NH2]

- fold loss of binding affinity against the linear 16-mer [4]: 2 fold
- IC50 [1]: 5.8 nM
Molecule: Ac-IWIAQELRRIGDEFNN-NH2 [Peptide U (linear) Ac-…-NH2]

- fold decrease in affinity against the linear 16-mer [4]: 4 to 5 fold
- IC50 [1]: 12 nM
Molecule: Ac-IWIAQELRRIGDEFAN-NH2 [Peptide R (linear) Ac-…-NH2]
